{
  "source": "patent US20070111260A1",
  "key": {"[1]": {"biological_target": "Human αvβ3 integrin (Chemicon, #CC1018), biotinylated (human) (UniProt P06756)", "sequence (P06756 31-1048 limits assumed, chain 1 of 2)": "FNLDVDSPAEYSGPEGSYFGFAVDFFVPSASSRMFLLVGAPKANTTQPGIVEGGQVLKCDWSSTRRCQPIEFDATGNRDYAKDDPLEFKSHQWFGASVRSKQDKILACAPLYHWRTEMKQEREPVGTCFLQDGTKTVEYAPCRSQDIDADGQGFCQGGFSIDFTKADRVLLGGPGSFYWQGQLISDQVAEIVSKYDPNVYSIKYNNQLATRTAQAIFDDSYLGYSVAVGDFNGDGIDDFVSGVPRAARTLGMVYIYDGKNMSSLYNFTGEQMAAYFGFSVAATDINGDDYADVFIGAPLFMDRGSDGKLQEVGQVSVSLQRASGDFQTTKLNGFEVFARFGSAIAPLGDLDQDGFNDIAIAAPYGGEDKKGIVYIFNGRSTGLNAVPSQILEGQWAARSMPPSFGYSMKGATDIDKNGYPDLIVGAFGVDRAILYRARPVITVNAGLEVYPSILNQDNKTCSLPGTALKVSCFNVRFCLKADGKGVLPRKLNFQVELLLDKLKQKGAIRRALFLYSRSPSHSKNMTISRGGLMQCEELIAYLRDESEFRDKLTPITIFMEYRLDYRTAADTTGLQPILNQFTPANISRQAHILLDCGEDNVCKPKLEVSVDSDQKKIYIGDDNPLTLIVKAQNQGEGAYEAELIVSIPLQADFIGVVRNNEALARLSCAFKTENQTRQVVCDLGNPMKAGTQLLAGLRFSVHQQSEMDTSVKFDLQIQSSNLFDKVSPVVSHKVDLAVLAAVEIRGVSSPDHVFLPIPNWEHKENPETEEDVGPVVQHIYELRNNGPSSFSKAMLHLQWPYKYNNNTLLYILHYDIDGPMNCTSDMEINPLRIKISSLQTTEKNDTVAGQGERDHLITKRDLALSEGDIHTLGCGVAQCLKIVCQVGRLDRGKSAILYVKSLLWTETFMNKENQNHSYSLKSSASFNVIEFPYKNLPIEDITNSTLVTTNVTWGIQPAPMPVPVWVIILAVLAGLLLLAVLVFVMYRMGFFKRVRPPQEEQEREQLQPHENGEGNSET", "sequence (P05106 27-788 limits assumed, chain 2 of 2, further chain)": "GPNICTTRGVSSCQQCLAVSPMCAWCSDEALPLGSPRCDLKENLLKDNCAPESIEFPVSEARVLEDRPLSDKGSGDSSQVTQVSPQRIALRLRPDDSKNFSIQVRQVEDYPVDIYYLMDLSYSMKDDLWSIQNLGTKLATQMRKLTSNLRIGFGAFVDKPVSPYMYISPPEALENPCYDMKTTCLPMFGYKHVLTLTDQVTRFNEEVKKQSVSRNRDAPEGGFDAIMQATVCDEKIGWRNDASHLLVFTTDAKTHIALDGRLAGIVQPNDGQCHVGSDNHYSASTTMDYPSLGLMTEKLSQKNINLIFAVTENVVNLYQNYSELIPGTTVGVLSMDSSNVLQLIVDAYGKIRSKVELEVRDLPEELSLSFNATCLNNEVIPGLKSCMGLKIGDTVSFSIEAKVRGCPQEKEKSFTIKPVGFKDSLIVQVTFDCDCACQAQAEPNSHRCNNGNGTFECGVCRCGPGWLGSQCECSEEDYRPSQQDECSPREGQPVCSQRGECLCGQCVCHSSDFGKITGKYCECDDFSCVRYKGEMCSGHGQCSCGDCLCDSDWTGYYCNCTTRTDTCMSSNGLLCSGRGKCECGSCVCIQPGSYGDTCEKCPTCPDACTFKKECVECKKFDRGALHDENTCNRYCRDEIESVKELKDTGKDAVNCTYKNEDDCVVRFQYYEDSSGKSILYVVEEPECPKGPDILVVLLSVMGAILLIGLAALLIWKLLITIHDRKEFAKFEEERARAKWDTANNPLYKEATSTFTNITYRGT", "assay": "flow cytometry, 293A cells displaying the ScFvFc, αVβ3-biotin 10 ug/ml, APC-streptavidin"}, "[2]": {"biological_target": "Human αvβ3 integrin (Chemicon, #CC1018), biotinylated (human) (UniProt P06756)", "assay": "flow cytometry, 293A cells displaying the ScFvFc, αVβ3-biotin 0.5 ug/ml, APC-streptavidin"}, "[3]": {"biological_target": "Human αvβ3 integrin (Chemicon, #CC1018), biotinylated (human) (UniProt P06756)", "assay": "flow cytometry, 293A cells displaying the ScFvFc, αVβ3-biotin 1 ug/ml, APC-streptavidin"}, "[4]": {"biological_target": "Human αvβ3 integrin (Chemicon, #CC1018), biotinylated (human) (UniProt P06756)", "assay": "flow cytometry, 293A cells displaying the ScFvFc, αVβ3-biotin 2.5 ug/ml, APC-streptavidin"}, "[5]": {"biological_target": "Human αvβ3 integrin (Chemicon, #CC1018), biotinylated (human) (UniProt P06756)", "assay": "flow cytometry, 293A cells displaying the ScFvFc, αVβ3-biotin 5 ug/ml, APC-streptavidin"}},
  "data": [
    {"binder": "Abegrin anti-αvβ3 integrin ScFvFc, displayed on 293A cells (scFv, INN chains, looked up, V domains shown, scFv-Fc displayed on 293A cell surface) VH: QVQLVESGGGVVQPGRSLRLSCAASGFTFSSYDMSWVRQAPGKGLEWVAKVSSGGGSTYYLDTVQGRFTISRDNSKNTLYLQMNSLRAEDTAVYYCARHLHGSFASWGQGTTVTVSS VL: EIVLTQSPATLSLSPGERATLSCQASQSISNFLHWYQQRPGQAPRLLIRYRSQSISGIPARFSGSGSGTDFTLTISSLEPEDFAVYYCQQSGSWPLTFGGGTKVEIK", "values": [
      {"measurement": "Percentage of positively stained cell", "setting": "[1]", "value": 90, "unit": "%"},
      {"measurement": "Percentage of positively stained cell", "setting": "[2]", "value": 81, "unit": "%"},
      {"measurement": "Percentage of positively stained cell", "setting": "[3]", "value": 83, "unit": "%"},
      {"measurement": "Percentage of positively stained cell", "setting": "[4]", "value": 85, "unit": "%"},
      {"measurement": "Percentage of positively stained cell", "setting": "[5]", "value": 84, "unit": "%"}
    ]}
  ]
}
